Results: US20120058906A1 (published 2012)
Each block holds one binder with its values, some of them ahead of it.

Key:
[1] = biological target: T1, rHuman Erythropoietin R/Fc Chimera, CF (R&D Systems Cat#963-ER) (human, UniProt P19235 25-250); assay: ECL (MSD multi-spot), Fab 14.5 nM; blank 117
T1 construct: Bought Fc chimera; also called EPO R/Fc; Epo R; Fc part of the bought chimera not given
T1 sequence: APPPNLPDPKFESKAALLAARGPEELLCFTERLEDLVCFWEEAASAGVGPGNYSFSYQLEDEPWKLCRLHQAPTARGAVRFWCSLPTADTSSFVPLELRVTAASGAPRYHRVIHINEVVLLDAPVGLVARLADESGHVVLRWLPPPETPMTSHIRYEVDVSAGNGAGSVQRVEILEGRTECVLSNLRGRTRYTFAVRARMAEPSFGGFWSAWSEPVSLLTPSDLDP

[2] = biological target: T2, Recombinant Human DLL4 (R&D Systems Cat#1506-D4/CF) (human, UniProt Q9NR61 27-524); assay: ECL (MSD multi-spot), Fab 14.5 nM; blank 117
T2 construct: Bought recombinant protein; also called delta-like protein 4

[3] = biological target: T3, rHuman ErbB2/Fc Chimera, CF (R&D Systems Cat#1129-ER) (human, UniProt P04626 23-652); assay: ECL (MSD multi-spot), Fab 14.5 nM; blank 117
T3 construct: Bought Fc chimera; also called human epidermal growth factor 2 receptor; HER2/neu; Fc part of the bought chimera not given

[4] = biological target: T4, rHuman Notch-1/Fc Chimera, CF (R&D Systems Cat#3647-TK) (human, UniProt P46531 19-526); assay: ECL (MSD multi-spot), Fab 14.5 nM; blank 117
T4 construct: Bought Fc chimera; Fc part of the bought chimera not given

[5] = biological target: T5, rHuman CD44/Fc Chimera, CF (R&D Systems Cat#3660-CD) (human, UniProt P16070 21-220); assay: ECL (MSD multi-spot), Fab 14.5 nM; blank 117
T5 construct: Bought Fc chimera; Fc part of the bought chimera not given

[6] = biological target: T1, rHuman Erythropoietin R/Fc Chimera, CF …; assay: ECL (MSD multi-spot), Fab 58.1 nM; blank 225
[7] = biological target: T2, Recombinant Human DLL4 (R&D Systems …); assay: ECL (MSD multi-spot), Fab 58.1 nM; blank 225
[8] = biological target: T3, rHuman ErbB2/Fc Chimera, CF (R&D …); assay: ECL (MSD multi-spot), Fab 58.1 nM; blank 225
[9] = biological target: T4, rHuman Notch-1/Fc Chimera, CF (R&D …); assay: ECL (MSD multi-spot), Fab 58.1 nM; blank 225
[10] = biological target: T5, rHuman CD44/Fc Chimera, CF (R&D Systems …); assay: ECL (MSD multi-spot), Fab 58.1 nM; blank 225
[11] = biological target: T1, rHuman Erythropoietin R/Fc Chimera, CF …; assay: ECL (MSD multi-spot), Fab 930 nM; blank 1206
[12] = biological target: T2, Recombinant Human DLL4 (R&D Systems …); assay: ECL (MSD multi-spot), Fab 930 nM; blank 1206
[13] = biological target: T3, rHuman ErbB2/Fc Chimera, CF (R&D …); assay: ECL (MSD multi-spot), Fab 930 nM; blank 1206
[14] = biological target: T4, rHuman Notch-1/Fc Chimera, CF (R&D …); assay: ECL (MSD multi-spot), Fab 930 nM; blank 1206
[15] = biological target: T5, rHuman CD44/Fc Chimera, CF (R&D Systems …); assay: ECL (MSD multi-spot), Fab 930 nM; blank 1206
[16] = biological target: T1, rHuman Erythropoietin R/Fc Chimera, CF …; assay: ECL (MSD multi-spot), Fab 232.5 nM; blank 460
[17] = biological target: T2, Recombinant Human DLL4 (R&D Systems …); assay: ECL (MSD multi-spot), Fab 232.5 nM; blank 460
[18] = biological target: T3, rHuman ErbB2/Fc Chimera, CF (R&D …); assay: ECL (MSD multi-spot), Fab 232.5 nM; blank 460
[19] = biological target: T4, rHuman Notch-1/Fc Chimera, CF (R&D …); assay: ECL (MSD multi-spot), Fab 232.5 nM; blank 460
[20] = biological target: T5, rHuman CD44/Fc Chimera, CF (R&D Systems …); assay: ECL (MSD multi-spot), Fab 232.5 nM; blank 460
[21] = biological target: T6, rHuman Notch-1/Fc Chimera, CF (R&D Systems Cat#3647-TK) (human, UniProt P46531 19-526); assay: MSD ECL multi-spot, Fab 0.43 uM, blank 879;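 further: blank spot per well as comparator with Hit at signal to blank ratio of 4 or more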
T6 construct: Bought Fc chimera; Fc part of the bought chimera not given

[22] = biological target: T7, rHuman IGF-1 sR (insulin-like growth factor-1 soluble receptor), CF (R&D Systems Cat#391-GR) (human, UniProt P08069 31-932); assay: MSD ECL multi-spot, Fab 0.43 uM, blank 879;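 further: blank spot per well as comparator with Hit at signal to blank ratio of 4 or more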
T7 construct: Bought soluble receptor; also called IGF-R1

[23] = biological target: T8, Recombinant Human DLL4 (R&D Systems Cat#1506-D4/CF) (human, UniProt Q9NR61 27-524); assay: MSD ECL multi-spot, Fab 0.43 uM, blank 879;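 further: blank spot per well as comparator with Hit at signal to blank ratio of 4 or more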
T8 construct: Bought recombinant protein; also called rHuman DLL4; delta-like protein 4

[24] = biological target: T6, rHuman Notch-1/Fc Chimera, CF (R&D …); assay: MSD ECL multi-spot, Fab 0.74 uM, blank 692;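 further: blank spot per well as comparator with Hit at signal to blank ratio of 4 or more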
[25] = biological target: T9, rHuman CD44/Fc Chimera, CF (R&D Systems Cat#3660-CD) (human, UniProt P16070 21-220); assay: MSD ECL multi-spot, Fab 0.74 uM, blank 692
T9 construct: Bought Fc chimera; Fc part of the bought chimera not given

[26] = biological target: T7, rHuman IGF-1 sR (insulin-like growth …); assay: MSD ECL multi-spot, Fab 0.74 uM, blank 692
[27] = biological target: T10, rHuman P-Cadherin/Fc Chimera, CF (R&D Systems Cat#861-PC) (human, UniProt P22223 108-654); assay: MSD ECL multi-spot, Fab 0.74 uM, blank 692
T10 construct: Bought Fc chimera; Fc part of the bought chimera not given

[28] = biological target: T11, rHuman Erythropoietin R/Fc Chimera, CF (R&D Systems Cat#963-ER) (human, UniProt P19235 25-250); assay: MSD ECL multi-spot, Fab 0.74 uM, blank 692
T11 construct: Bought Fc chimera; also called EPO R/Fc; EPOR; Fc part of the bought chimera not given
T11 sequence: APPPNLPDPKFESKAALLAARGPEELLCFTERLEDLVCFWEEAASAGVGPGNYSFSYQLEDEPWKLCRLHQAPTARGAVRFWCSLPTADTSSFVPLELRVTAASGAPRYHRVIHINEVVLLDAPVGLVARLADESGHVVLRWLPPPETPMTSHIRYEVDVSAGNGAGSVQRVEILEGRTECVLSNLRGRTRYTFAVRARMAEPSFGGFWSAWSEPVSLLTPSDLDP

[29] = biological target: T8, Recombinant Human DLL4 (R&D Systems …); assay: MSD ECL multi-spot, Fab 0.74 uM, blank 692
[30] = biological target: T12, rHuman ErbB2/Fc Chimera, CF (R&D Systems Cat#1129-ER) (human, UniProt P04626 23-652); assay: MSD ECL multi-spot, Fab 0.74 uM, blank 692
T12 construct: Bought Fc chimera; also called HER2/neu; Fc part of the bought chimera not given

[31] = biological target: T13, rHuman EGF R/Fc Chimera, CF (R&D Systems Cat#344-ER) (human, UniProt P00533 25-645); assay: MSD ECL multi-spot, Fab 0.74 uM, blank 692
T13 construct: Bought Fc chimera; Fc part of the bought chimera not given

[32] = biological target: T14, rHuman HGF R/c-MET/Fc Chimera, CF (R&D Systems Cat#358-MT/CF) (human, UniProt P08581 25-932); assay: MSD ECL multi-spot, Fab 0.74 uM, blank 692
T14 construct: Bought Fc chimera; also called HGF R/Fc; Fc part of the bought chimera not given

[33] = biological target: T15, rHuman Erythropoietin R/Fc Chimera, CF (R&D Systems, Cat#963-ER) (human, UniProt P19235 25-250); assay: ECL (MSD) Fab titration; binding affinity estimated from the 50% binding signal
T15 construct: Bought chimera; also called EPO R/Fc; Epo R; Fc part of the bought chimera not given
T15 sequence: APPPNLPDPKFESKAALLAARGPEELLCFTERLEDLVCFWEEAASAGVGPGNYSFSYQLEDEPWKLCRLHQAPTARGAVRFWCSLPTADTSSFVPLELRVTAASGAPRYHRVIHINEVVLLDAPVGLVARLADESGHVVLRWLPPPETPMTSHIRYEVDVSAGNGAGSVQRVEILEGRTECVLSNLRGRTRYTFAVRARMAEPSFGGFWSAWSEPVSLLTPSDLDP

B3: Fab VH1-46_IGHD3-10*01_IGHJ4*01 & B3_IGKJ1*01 (Fab, V domains shown)
VH: QVQLVQSGAEVKKPGASVKVSCKASGYTFTSYYMHWVRQAPGQGLEWMGIINPSGGSTSYAQKFQGRVTMTRDTSTSTVYMELSSLRSEDTAVYYCAREYYYGSGSYYNDYFDYWGQGTLVTVSS
VL: not shown
notes: Expressed in E. coli as Fab: heavy chain with CH1 plus Flag and His tags from Plasmid A, kappa light chain constant region from Plasmid C; also called Fab No. 5
ECL signal [24]: 980
ECL signal [25]: 682
ECL signal [26]: 593
ECL signal [27]: 1160
ECL signal [28]: 4110
ECL signal [29]: 1000
ECL signal [30]: 562
ECL signal [31]: 652
ECL signal [32]: 633

B4: Fab VH1-46_IGHD3-10*01_IGHJ4*01 & B3_IGKJ1*01 (Fab, V domains shown)
VH: QVQLVQSGAEVKKPGASVKVSCKASGYTFTSYYMHWVRQAPGQGLEWMGIINPSGGSTSYAQKFQGRVTMTRDTSTSTVYMELSSLRSEDTAVYYCAREYYYGSGSYYNDYFDYWGQGTLVTVSS
VL: not shown
notes: Fab from E. coli; VH joined to CH1 with Flag and His tags (Plasmid A), VL to kappa CL (Plasmid C)
Kd [33]: ~100 nM

Further lines, results first:

ECL signal [1]: 660 ECL signal
ECL signal [2]: 1150 ECL signal
ECL signal [3]: 274 ECL signal
ECL signal [4]: 317 ECL signal
ECL signal [5]: 212 ECL signal
ECL signal [6]: 829 ECL signal
ECL signal [7]: 1880 ECL signal
ECL signal [8]: 322 ECL signal
ECL signal [9]: 388 ECL signal
ECL signal [10]: 375 ECL signal
ECL signal [11]: 3010 ECL signal
ECL signal [12]: 8160 ECL signal
ECL signal [13]: 2220 ECL signal
ECL signal [14]: 2210 ECL signal
ECL signal [15]: 1920 ECL signal
ECL signal [16]: 1470 ECL signal
ECL signal [17]: 3590 ECL signal
ECL signal [18]: 779 ECL signal
ECL signal [19]: 778 ECL signal
ECL signal [20]: 607 ECL signal
B1: Fab VH1-46_IGHD6-13*01_IGHJ4*01 & O1_IGKJ1*01 (Fab, V domains shown)
VH: QVQLVQSGAEVKKPGASVKVSCKASGYTFTSYYMHWVRQAPGQGLEWMGIINPSGGSTSYAQKFQGRVTMTRDTSTSTVYMELSSLRSEDTAVYYCAREGYSSSWYDYFDYWGQGTLVTVSS
VL: DIVMTQTPLSLPVTPGEPASISCRSSQSLLDSDDGNTYLDWYLQKPGQSPQLLIYTLSYRASGVPDRFSGSGSGTDFTLKISRVEAEDVGVYYCMQRIEFPSWTFGQGTKVEIK
notes: Tested as a Fab expressed in E. coli: heavy chain with CH1 plus Flag and His tags from Plasmid A, kappa constant region from Plasmid C

ECL signal [21]: 1790
ECL signal [22]: 1140
ECL signal [23]: 2540
B2: Fab VH1-46_IGHD6-13*01_IGHJ4*01 & B3_IGKJ1*01 (Fab, V domains shown)
VH: QVQLVQSGAEVKKPGASVKVSCKASGYTFTSYYMHWVRQAPGQGLEWMGIINPSGGSTSYAQKFQGRVTMTRDTSTSTVYMELSSLRSEDTAVYYCAREGYSSSWYDYFDYWGQGTLVTVSS
VL: not shown
notes: Expressed in E. coli as Fab: heavy chain with CH1 plus Flag and His tags from Plasmid A, kappa light chain constant region from Plasmid C; also called Fab No. 6
